We go through 17 molecules from patent US10590193 (dated 2020).

As a reminder, the Kd is the concentration at which binding is half-saturated.

T1: human VEGF110 (human, UniProt P15692)
T1 chain: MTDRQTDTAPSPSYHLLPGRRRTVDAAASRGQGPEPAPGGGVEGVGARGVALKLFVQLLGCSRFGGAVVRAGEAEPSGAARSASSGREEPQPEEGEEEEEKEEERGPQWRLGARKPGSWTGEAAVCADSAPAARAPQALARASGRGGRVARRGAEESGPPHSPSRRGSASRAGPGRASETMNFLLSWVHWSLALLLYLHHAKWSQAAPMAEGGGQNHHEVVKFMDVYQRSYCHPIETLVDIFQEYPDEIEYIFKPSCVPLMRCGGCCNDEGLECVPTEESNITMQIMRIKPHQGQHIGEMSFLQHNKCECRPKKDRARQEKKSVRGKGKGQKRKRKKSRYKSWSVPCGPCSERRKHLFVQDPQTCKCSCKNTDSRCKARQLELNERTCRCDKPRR

T2: human VEGF165 (human, UniProt P15692)
T2 chain: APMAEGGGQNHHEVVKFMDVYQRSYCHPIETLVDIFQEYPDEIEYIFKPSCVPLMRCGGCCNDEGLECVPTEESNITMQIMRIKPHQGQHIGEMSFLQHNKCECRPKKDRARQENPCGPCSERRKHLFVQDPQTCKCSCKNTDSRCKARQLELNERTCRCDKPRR

T3: mouse VEGF164 (mouse, UniProt Q00731)
T3 chain: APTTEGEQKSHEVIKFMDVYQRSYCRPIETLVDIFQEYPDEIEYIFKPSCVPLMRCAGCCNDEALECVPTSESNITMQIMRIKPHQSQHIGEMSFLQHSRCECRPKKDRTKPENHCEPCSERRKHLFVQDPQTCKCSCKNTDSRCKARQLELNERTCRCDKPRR

T4: human VEGF121 (human, UniProt P15692)
T4 chain: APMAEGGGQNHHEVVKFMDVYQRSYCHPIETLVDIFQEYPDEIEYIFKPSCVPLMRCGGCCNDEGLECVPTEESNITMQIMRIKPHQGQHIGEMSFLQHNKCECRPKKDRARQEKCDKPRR

T5: human PlGF (human, UniProt P49763)
T5 chain: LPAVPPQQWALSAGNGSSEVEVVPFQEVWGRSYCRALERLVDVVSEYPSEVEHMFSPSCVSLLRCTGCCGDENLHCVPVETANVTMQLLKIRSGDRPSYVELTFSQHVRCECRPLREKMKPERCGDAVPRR

T6: rat VEGF164 (rat, UniProt P16612)
T6 chain: T3 chain with S10A, I14V, I75V

B1: 509-min (antibody, V domains shown)
VH: EVQLVESGGGLVQPGGSLRLSCAASGFSLSSYYMCWVRQAPGKGLEWVSCLDYVGDTDYASWAKGRFTISRDNSKNTLYLQMNSLRAEDTAVYYCAKTDDSRGWGLNIWGQGTLVTVSS
VL: EIVMTQSPSTLSASVGDRVIITCQASQNIRIWLSWYQQKPGKAPKLLIYKASTLESGVPSRFSGSGSGAEFTLTISSLQPDDFATYYCQNNAHYSTNGGTFGQGTKLTVLG
B2: 567-max (antibody, V domains shown)
VH: EVQLVESGGGLVQPGGSLRLSCSVSGFSLSDYYMCWVRQAPGKGLEWVGCLDYFGSTDDASWAKGRFTISKDTSKNTVYLQMNSLRAEDTAVYYCARTDDSRGWGLNIWGQGTLVTVSS
VL: B1 VL with S26D, N28S, R30Y, A69T, E70Q
B3: 578-min (antibody, V domains shown)
VH: EVQLVESGGGLVQPGGSLRLSCAASGFSLTDYYYMTWVRQAPGKGLEWVSFIDPDDDPYYATWAKGRFTISRDNSKNTLYLQMNSLRAEDTAVYYCAKGDHNSGWGLDIWGQGTLVTVSS
VL: EIVMTQSPSTLSASVGDRVIITCQASEIIHSWLAWYQQKPGKAPKLLIYLASTLASGVPSRFSGSGSGAEFTLTISSLQPDDFATYYCQNVYLASTNGANFGQGTKLTVLG
B4: 578-max (antibody, V domains shown)
VH: B3 VH with A23T, S50G, N74T, L79V, K98G
VL: B3 VL with A69T, E70Q
B5: 375-max (antibody, V domains shown)
VH: EVQLVESGGGLVQPGGSLRLSCKASGFSFTTTDYMCWVRQAPGKGLEWVGCILAGDGSTYYANWAKGRFTGSKDTSKNTVYLQMNSLRAEDTAVYYCARSDPASSWSFALWGQGTLVTVSS
VL: EIVMTQSPSTLSASVGDRVIITCQASENINIWLSWYQQKPGKAPKLLIYQASKLASGVPSRFSGSGSGTQFTLTISSLQPDDFATYYCQNNYSYNRYGAPFGQGTKLTVLG
B6: 534-min C-His (antibody, V domains shown)
VH: EVQLVESGGGLVQPGGSLRLSCAASGFSLSYYYMSWVRQAPGKGLEWVSIIGPGDYTDYASWAKGRFTISRDNSKNTLYLQMNSLRAEDTAVYYCAKGDDNSGWGEDIWGQGTLVTVSS
VL: EIVMTQSPSTLSASVGDRVIITCQASQSINIWLSWYQQKPGKAPKLLIYKESTLASGVPSRFSGSGSGAEFTLTISSLQPDDFATYYCQNNYDSGNNGFPFGQGTKLTVLG
B7: 534-max (antibody, V domains shown)
VH: B6 VH with A23T, S49G, R71K, N73T, L78V, K97R
VL: B6 VL with A69T
B8: 435-max (antibody, V domains shown)
VH: EVQLVESGGGLVQPGGSLRLSCKVSGFSLNTNYWMCWVRQAPGKGLEWVGCMYTGSYNRAYYASWAKGRFTSSKDTSKNTVYLQMNSLRAEDTAVYYCAKGSNWYSDLWGQGTLVTVSS
VL: EIVMTQSPSTLSASVGDRVIIKCQASQSIGSSLAWYQQKPGKAPKLLIYTAANLASGVPSRFSGSGSGAEFTLTISSLQPDDFATYYCQNFATSDTVTFGQGTKLTVLG
B9: 511max_min (905) (antibody, V domains shown)
VH: EVQLVESGGGLVQPGGSLRLSCAASGFSLNTYYMNWVRQAPGKGLEWVSIIAPDDTTYYASWAKSRFTISRDNSKNTLYLQMNSLRAEDTAVYYCAKSGDTTAWGADIWGQGTLVTVSS
VL: EIVMTQSPSTLSASVGDRVIITCQASQSINIWLSWYQQKPGKAPKLLIYRASTLASGVPSRFSGSGSGTEFTLTISSLQPDDFATYYCQANYAYSAGYGAAFGQGTKLTVLG
B10: 511min_max (904) (antibody, V domains shown)
VH: B9 VH with A23T, A24V, S49G, F67S, N73T, L78V, K97R
VL: B9 VL with L33C, T69A
B11: 578 wildtype C-His (798) (antibody, V domains shown)
VH: QSVEESGGRLVTPGTPLTLTCTASGFSLTDYYYMTWVRLAPGKGLEYIGFIDPDDDPYYATWAKGRFTISRTSTTVNLKMTSPTTEDTATYFCAGGDHNSGWGLDIWGPGTLVTVSL
VL: DVVMTQTPSSVSAAVGDTVTINCQASEIIHSWLAWYQQKPGQPPKLLIYLASTLASGVPSRFKGSGSGTQFTLTISDLECADAAIYYCQNVYLASTNGANFGGGTEVVVK
B12: 578min_max T84N_V89A (1009) (antibody, V domains shown)
VH: B3 VH with A23T, S50G, L79A, K98G
VL: B3 VL
B13: 578-max-min (902) (antibody, V domains shown)
VH: B3 VH
VL: B3 VL with A69T, E70Q
B14: 578-max FW1.4_DHP (960) (antibody, V domains shown)
VH: B3 VH with L11S, A23T, S50G, N74T, L79V, V93T, K98G, L115T
VL: B3 VL with A69T, E70Q
B15: 578min_max T84N (991) (antibody, V domains shown)
VH: B3 VH with A23T, S50G, L79V, K98G
VL: B3 VL
B16: 578min_max V89A (978) (antibody, V domains shown)
VH: B3 VH with A23T, S50G, N74T, L79A, K98G
VL: B3 VL
B17: 578min_max V89L (980) (antibody, V domains shown)
VH: B3 VH with A23T, S50G, N74T, K98G
VL: B3 VL

Numbering of substitutions follows the chain as printed. Names and notes keep the numbering of the source.

One test addresses T1, human VEGF110. Put plainly: SPR, pH 5. (Surface plasmon resonance follows binding to a sensor surface in real time, without labels.)
B1 registered a Kd of 1.65 nM. This counts as single-digit nanomolar.
Same read-out and setting: the value for B2 was 0.0327 nM; that for B3 was 11.4 nM; that for B4 was 1.38 nM.

In the next test the target is T2, human VEGF165. Put plainly: SPR, pH 5.
Consider B5, for which binding was characterised by a dissociation constant (Kd) of 2.68 nM. In other words, the single-digit nanomolar range.
Same read-out and setting: as for B6, the figure is 34.1 nM; as for B7, 9.21 nM.
On the same count and under the same terms, as for B1, the figure is 1.82 nM.
Same read-out and setting: as for B2, the figure is 0.188 nM; as for B8, 4.53 nM.
Molecule B3 had a Kd of 9.01 nM.
B4 displayed a Kd of 0.439 nM. This Kd lies about 21-fold lower than the previous one.

Another test addresses T3, mouse VEGF164. Briefly: SPR, pH 5.
As to B1, the Kd came out at 1.63 nM.
On the same count and under the same terms, as for B2, the figure is 0.0929 nM; as for B3, 10.7 nM; as for B4, 0.429 nM.

Another test has as its target T2, human VEGF165. Put plainly: SPR, pH 7.4.
Turning to B5, the Kd came out at 4.74 nM. This counts as single-digit nanomolar.
B7 registered a Kd of 2.47 nM.
In turn, B1 yielded a Kd of 3.06 nM.
Still for that read-out and setting: the value for B2 was 0.143 nM; that for B8 was 0.0922 nM; that for B3 was 0.181 nM.
Still for that read-out and setting: as for B4, the figure is 0.0237 nM.

A further test deals with T4, human VEGF121. Briefly: SPR, pH 5.
B1 came in with a dissociation constant Kd of 1.28 nM.
Take B2: binding was put at a Kd of 0.0511 nM.
The same measure, in the same setting: the value for B3 was 9.16 nM; that for B4 was 0.95 nM.

Another test addresses T2, human VEGF165. Briefly: SPR, pH 5. This is another data set of the same source.
With B9, the affinity, expressed as Kd, was 1.48 nM. In other words, the single-digit nanomolar range.
Still for that read-out and setting: as for B10, the figure is 0.278 nM; as for B11, 0.2 nM.
Same read-out and setting: as for B12, the figure is 0.615 nM; as for B13, 6.55 nM; as for B14, 0.266 nM.
Same read-out and setting: as for B15, the figure is 0.971 nM; as for B16, 1.2 nM; as for B17, 2.13 nM.

Another test addresses T5, human PlGF. Briefly: SPR, pH 5.
As for B1, the binding result is recorded as “no binding”.
Same read-out and setting: the value for B2 was “no binding”; that for B3 was “no binding”; that for B4 was “no binding”.

Another test has as its target T6, rat VEGF164. Put plainly: SPR, pH 5.
As to B1, the Kd worked out at 2.41 nM.
Turning to B2, the Kd came out at 0.149 nM. Against the preceding molecule, the Kd is about 16-fold lower.
The molecule B3 yielded a Kd of 10.7 nM.
On the same count and under the same terms, the value for B4 was 0.598 nM.
